Source: the supplement of paper PMC10266784

B1: library; numbered along this chain (parent)
chain: MAAAAAAAAEQQSSNGPVKKSMREKAVERRSVNKEHNSNFKAGYIPIDEDRLHKTGLRGRKGNLAICVIILLFILAVINLIITLVIWAVIRIGPNGCDSMEFHESGLLRFKQVSDMGVIHPLYKSTVGGRRNENLVITGNNQPIVFQQGTTKLSVENNKTSITSDIGMQFFDPRTQNILFSTDYETHEFHLPSGVKSLNVQKASTERITSNATSDLNIKVDGRAIVRGNEGVFIMGKTIEFHMGGNMELKAENSIILNGSVMVSTTRLPSSSSGDQLGSGDWVRYKLCMCADGTLFKVQVTSQNMGCQISDNPCGNTH

Variants of: B1
Assay: SGCB cell-surface expression functional score (HA stain, bin4 vs bin1, normalised to synonymous) (log10 ratio); higher = more cell-surface SGCB (functional)
Procedure: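 Deep mutational scan of full-length human SGCB (YFP-SGCB-HA, NNN codon sublibraries A-F) delivered by lentivirus at low MOI into ADG-HEK293 cells stably expressing SGCA, SGCD and SGCG. YFP-positive cells were stained for surface HA on unpermeabilized cells and FACS-sorted into bins. The functional score is log10(frequency in high bin 4 / frequency in low bin 1), normalised per chunk so that synonymous variants have mean 0 and SD 0.5. Scores are the median over codons and over duplicate biological replicates; scores below -0.5 are called non-functional. Scale: negative means deleterious.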

Variant | SGCB cell-surface expression functional score (log10)
MAAAAAAAAEQQSSNGPVKKSMREKAVERRSVNKEHNSNFKAGYIPIDEDRLHKTGLRGRKGNLAICVIILLFILAVINLIITLVIWAVIRAGPNGCDSMEFHESGLLRFKQVSDMGVIHPLYKSTVGGRRNENLVITGNNQPIVFQQGTTKLSVENNKTSITSDIGMQFFDPRTQNILFSTDYETHEFHLPSGVKSLNVQKASTERITSNATSDLNIKVDGRAIVRGNEGVFIMGKTIEFHMGGNMELKAENSIILNGSVMVSTTRLPSSSSGDQLGSGDWVRYKLCMCADGTLFKVQVTSQNMGCQISDNPCGNTH [I92A] | -1.94
MAAAAAAAAEQQSSNGPVKKSMREKAVERRSVNKEHNSNFKAGYIPIDEDRLHKTGLRGRKGNLAICVIILLFILAVINLIITLVIWAVIRLGPNGCDSMEFHESGLLRFKQVSDMGVIHPLYKSTVGGRRNENLVITGNNQPIVFQQGTTKLSVENNKTSITSDIGMQFFDPRTQNILFSTDYETHEFHLPSGVKSLNVQKASTERITSNATSDLNIKVDGRAIVRGNEGVFIMGKTIEFHMGGNMELKAENSIILNGSVMVSTTRLPSSSSGDQLGSGDWVRYKLCMCADGTLFKVQVTSQNMGCQISDNPCGNTH [I92L] | -0.39
MAAAAAAAAEQQSSNGPVKKSMREKAVERRSVNKEHNSNFKAGYIPIDEDRLHKTGLRGRKGNLAICVIILLFILAVINLIITLVIWAVIRCGPNGCDSMEFHESGLLRFKQVSDMGVIHPLYKSTVGGRRNENLVITGNNQPIVFQQGTTKLSVENNKTSITSDIGMQFFDPRTQNILFSTDYETHEFHLPSGVKSLNVQKASTERITSNATSDLNIKVDGRAIVRGNEGVFIMGKTIEFHMGGNMELKAENSIILNGSVMVSTTRLPSSSSGDQLGSGDWVRYKLCMCADGTLFKVQVTSQNMGCQISDNPCGNTH [I92C] | -1.75
MAAAAAAAAEQQSSNGPVKKSMREKAVERRSVNKEHNSNFKAGYIPIDEDRLHKTGLRGRKGNLAICVIILLFILAVINLIITLVIWAVIRGGPNGCDSMEFHESGLLRFKQVSDMGVIHPLYKSTVGGRRNENLVITGNNQPIVFQQGTTKLSVENNKTSITSDIGMQFFDPRTQNILFSTDYETHEFHLPSGVKSLNVQKASTERITSNATSDLNIKVDGRAIVRGNEGVFIMGKTIEFHMGGNMELKAENSIILNGSVMVSTTRLPSSSSGDQLGSGDWVRYKLCMCADGTLFKVQVTSQNMGCQISDNPCGNTH [I92G] | -0.75
MAAAAAAAAEQQSSNGPVKKSMREKAVERRSVNKEHNSNFKAGYIPIDEDRLHKTGLRGRKGNLAICVIILLFILAVINLIITLVIWAVIREGPNGCDSMEFHESGLLRFKQVSDMGVIHPLYKSTVGGRRNENLVITGNNQPIVFQQGTTKLSVENNKTSITSDIGMQFFDPRTQNILFSTDYETHEFHLPSGVKSLNVQKASTERITSNATSDLNIKVDGRAIVRGNEGVFIMGKTIEFHMGGNMELKAENSIILNGSVMVSTTRLPSSSSGDQLGSGDWVRYKLCMCADGTLFKVQVTSQNMGCQISDNPCGNTH [I92E] | -2.15
MAAAAAAAAEQQSSNGPVKKSMREKAVERRSVNKEHNSNFKAGYIPIDEDRLHKTGLRGRKGNLAICVIILLFILAVINLIITLVIWAVIRKGPNGCDSMEFHESGLLRFKQVSDMGVIHPLYKSTVGGRRNENLVITGNNQPIVFQQGTTKLSVENNKTSITSDIGMQFFDPRTQNILFSTDYETHEFHLPSGVKSLNVQKASTERITSNATSDLNIKVDGRAIVRGNEGVFIMGKTIEFHMGGNMELKAENSIILNGSVMVSTTRLPSSSSGDQLGSGDWVRYKLCMCADGTLFKVQVTSQNMGCQISDNPCGNTH [I92K] | -1.31
MAAAAAAAAEQQSSNGPVKKSMREKAVERRSVNKEHNSNFKAGYIPIDEDRLHKTGLRGRKGNLAICVIILLFILAVINLIITLVIWAVIRDGPNGCDSMEFHESGLLRFKQVSDMGVIHPLYKSTVGGRRNENLVITGNNQPIVFQQGTTKLSVENNKTSITSDIGMQFFDPRTQNILFSTDYETHEFHLPSGVKSLNVQKASTERITSNATSDLNIKVDGRAIVRGNEGVFIMGKTIEFHMGGNMELKAENSIILNGSVMVSTTRLPSSSSGDQLGSGDWVRYKLCMCADGTLFKVQVTSQNMGCQISDNPCGNTH [I92D] | -2.38
MAAAAAAAAEQQSSNGPVKKSMREKAVERRSVNKEHNSNFKAGYIPIDEDRLHKTGLRGRKGNLAICVIILLFILAVINLIITLVIWAVIRHGPNGCDSMEFHESGLLRFKQVSDMGVIHPLYKSTVGGRRNENLVITGNNQPIVFQQGTTKLSVENNKTSITSDIGMQFFDPRTQNILFSTDYETHEFHLPSGVKSLNVQKASTERITSNATSDLNIKVDGRAIVRGNEGVFIMGKTIEFHMGGNMELKAENSIILNGSVMVSTTRLPSSSSGDQLGSGDWVRYKLCMCADGTLFKVQVTSQNMGCQISDNPCGNTH [I92H] | -1.9
MAAAAAAAAEQQSSNGPVKKSMREKAVERRSVNKEHNSNFKAGYIPIDEDRLHKTGLRGRKGNLAICVIILLFILAVINLIITLVIWAVIRFGPNGCDSMEFHESGLLRFKQVSDMGVIHPLYKSTVGGRRNENLVITGNNQPIVFQQGTTKLSVENNKTSITSDIGMQFFDPRTQNILFSTDYETHEFHLPSGVKSLNVQKASTERITSNATSDLNIKVDGRAIVRGNEGVFIMGKTIEFHMGGNMELKAENSIILNGSVMVSTTRLPSSSSGDQLGSGDWVRYKLCMCADGTLFKVQVTSQNMGCQISDNPCGNTH [I92F] | -0.74
MAAAAAAAAEQQSSNGPVKKSMREKAVERRSVNKEHNSNFKAGYIPIDEDRLHKTGLRGRKGNLAICVIILLFILAVINLIITLVIWAVIRMGPNGCDSMEFHESGLLRFKQVSDMGVIHPLYKSTVGGRRNENLVITGNNQPIVFQQGTTKLSVENNKTSITSDIGMQFFDPRTQNILFSTDYETHEFHLPSGVKSLNVQKASTERITSNATSDLNIKVDGRAIVRGNEGVFIMGKTIEFHMGGNMELKAENSIILNGSVMVSTTRLPSSSSGDQLGSGDWVRYKLCMCADGTLFKVQVTSQNMGCQISDNPCGNTH [I92M] | -0.21
MAAAAAAAAEQQSSNGPVKKSMREKAVERRSVNKEHNSNFKAGYIPIDEDRLHKTGLRGRKGNLAICVIILLFILAVINLIITLVIWAVIRNGPNGCDSMEFHESGLLRFKQVSDMGVIHPLYKSTVGGRRNENLVITGNNQPIVFQQGTTKLSVENNKTSITSDIGMQFFDPRTQNILFSTDYETHEFHLPSGVKSLNVQKASTERITSNATSDLNIKVDGRAIVRGNEGVFIMGKTIEFHMGGNMELKAENSIILNGSVMVSTTRLPSSSSGDQLGSGDWVRYKLCMCADGTLFKVQVTSQNMGCQISDNPCGNTH [I92N] | -1.68
MAAAAAAAAEQQSSNGPVKKSMREKAVERRSVNKEHNSNFKAGYIPIDEDRLHKTGLRGRKGNLAICVIILLFILAVINLIITLVIWAVIYIGPNGCDSMEFHESGLLRFKQVSDMGVIHPLYKSTVGGRRNENLVITGNNQPIVFQQGTTKLSVENNKTSITSDIGMQFFDPRTQNILFSTDYETHEFHLPSGVKSLNVQKASTERITSNATSDLNIKVDGRAIVRGNEGVFIMGKTIEFHMGGNMELKAENSIILNGSVMVSTTRLPSSSSGDQLGSGDWVRYKLCMCADGTLFKVQVTSQNMGCQISDNPCGNTH [R91Y] | -1.94
MAAAAAAAAEQQSSNGPVKKSMREKAVERRSVNKEHNSNFKAGYIPIDEDRLHKTGLRGRKGNLAICVIILLFILAVINLIITLVIWAVISIGPNGCDSMEFHESGLLRFKQVSDMGVIHPLYKSTVGGRRNENLVITGNNQPIVFQQGTTKLSVENNKTSITSDIGMQFFDPRTQNILFSTDYETHEFHLPSGVKSLNVQKASTERITSNATSDLNIKVDGRAIVRGNEGVFIMGKTIEFHMGGNMELKAENSIILNGSVMVSTTRLPSSSSGDQLGSGDWVRYKLCMCADGTLFKVQVTSQNMGCQISDNPCGNTH [R91S] | -0.79
MAAAAAAAAEQQSSNGPVKKSMREKAVERRSVNKEHNSNFKAGYIPIDEDRLHKTGLRGRKGNLAICVIILLFILAVINLIITLVIWAVIWIGPNGCDSMEFHESGLLRFKQVSDMGVIHPLYKSTVGGRRNENLVITGNNQPIVFQQGTTKLSVENNKTSITSDIGMQFFDPRTQNILFSTDYETHEFHLPSGVKSLNVQKASTERITSNATSDLNIKVDGRAIVRGNEGVFIMGKTIEFHMGGNMELKAENSIILNGSVMVSTTRLPSSSSGDQLGSGDWVRYKLCMCADGTLFKVQVTSQNMGCQISDNPCGNTH [R91W] | -1.69
MAAAAAAAAEQQSSNGPVKKSMREKAVERRSVNKEHNSNFKAGYIPIDEDRLHKTGLRGRKGNLAICVIILLFILAVINLIITLVIWAVINIGPNGCDSMEFHESGLLRFKQVSDMGVIHPLYKSTVGGRRNENLVITGNNQPIVFQQGTTKLSVENNKTSITSDIGMQFFDPRTQNILFSTDYETHEFHLPSGVKSLNVQKASTERITSNATSDLNIKVDGRAIVRGNEGVFIMGKTIEFHMGGNMELKAENSIILNGSVMVSTTRLPSSSSGDQLGSGDWVRYKLCMCADGTLFKVQVTSQNMGCQISDNPCGNTH [R91N] | -0.75
MAAAAAAAAEQQSSNGPVKKSMREKAVERRSVNKEHNSNFKAGYIPIDEDRLHKTGLRGRKGNLAICVIILLFILAVINLIITLVIWAVIQIGPNGCDSMEFHESGLLRFKQVSDMGVIHPLYKSTVGGRRNENLVITGNNQPIVFQQGTTKLSVENNKTSITSDIGMQFFDPRTQNILFSTDYETHEFHLPSGVKSLNVQKASTERITSNATSDLNIKVDGRAIVRGNEGVFIMGKTIEFHMGGNMELKAENSIILNGSVMVSTTRLPSSSSGDQLGSGDWVRYKLCMCADGTLFKVQVTSQNMGCQISDNPCGNTH [R91Q] | 0.15
MAAAAAAAAEQQSSNGPVKKSMREKAVERRSVNKEHNSNFKAGYIPIDEDRLHKTGLRGRKGNLAICVIILLFILAVINLIITLVIWAVIVIGPNGCDSMEFHESGLLRFKQVSDMGVIHPLYKSTVGGRRNENLVITGNNQPIVFQQGTTKLSVENNKTSITSDIGMQFFDPRTQNILFSTDYETHEFHLPSGVKSLNVQKASTERITSNATSDLNIKVDGRAIVRGNEGVFIMGKTIEFHMGGNMELKAENSIILNGSVMVSTTRLPSSSSGDQLGSGDWVRYKLCMCADGTLFKVQVTSQNMGCQISDNPCGNTH [R91V] | -1.43
MAAAAAAAAEQQSSNGPVKKSMREKAVERRSVNKEHNSNFKAGYIPIDEDRLHKTGLRGRKGNLAICVIILLFILAVINLIITLVIWAVIPIGPNGCDSMEFHESGLLRFKQVSDMGVIHPLYKSTVGGRRNENLVITGNNQPIVFQQGTTKLSVENNKTSITSDIGMQFFDPRTQNILFSTDYETHEFHLPSGVKSLNVQKASTERITSNATSDLNIKVDGRAIVRGNEGVFIMGKTIEFHMGGNMELKAENSIILNGSVMVSTTRLPSSSSGDQLGSGDWVRYKLCMCADGTLFKVQVTSQNMGCQISDNPCGNTH [R91P] | -1.76
MAAAAAAAAEQQSSNGPVKKSMREKAVERRSVNKEHNSNFKAGYIPIDEDRLHKTGLRGRKGNLAICVIILLFILAVINLIITLVIWAVITIGPNGCDSMEFHESGLLRFKQVSDMGVIHPLYKSTVGGRRNENLVITGNNQPIVFQQGTTKLSVENNKTSITSDIGMQFFDPRTQNILFSTDYETHEFHLPSGVKSLNVQKASTERITSNATSDLNIKVDGRAIVRGNEGVFIMGKTIEFHMGGNMELKAENSIILNGSVMVSTTRLPSSSSGDQLGSGDWVRYKLCMCADGTLFKVQVTSQNMGCQISDNPCGNTH [R91T] | -2.04
